The conditions of series [1]: BNP as active hormone; cited from earlier work.
For series [2], the target named is T1, GC-A receptor (Homo sapiens, UniProt P16066).
T1 sequence (P16066 33-1061): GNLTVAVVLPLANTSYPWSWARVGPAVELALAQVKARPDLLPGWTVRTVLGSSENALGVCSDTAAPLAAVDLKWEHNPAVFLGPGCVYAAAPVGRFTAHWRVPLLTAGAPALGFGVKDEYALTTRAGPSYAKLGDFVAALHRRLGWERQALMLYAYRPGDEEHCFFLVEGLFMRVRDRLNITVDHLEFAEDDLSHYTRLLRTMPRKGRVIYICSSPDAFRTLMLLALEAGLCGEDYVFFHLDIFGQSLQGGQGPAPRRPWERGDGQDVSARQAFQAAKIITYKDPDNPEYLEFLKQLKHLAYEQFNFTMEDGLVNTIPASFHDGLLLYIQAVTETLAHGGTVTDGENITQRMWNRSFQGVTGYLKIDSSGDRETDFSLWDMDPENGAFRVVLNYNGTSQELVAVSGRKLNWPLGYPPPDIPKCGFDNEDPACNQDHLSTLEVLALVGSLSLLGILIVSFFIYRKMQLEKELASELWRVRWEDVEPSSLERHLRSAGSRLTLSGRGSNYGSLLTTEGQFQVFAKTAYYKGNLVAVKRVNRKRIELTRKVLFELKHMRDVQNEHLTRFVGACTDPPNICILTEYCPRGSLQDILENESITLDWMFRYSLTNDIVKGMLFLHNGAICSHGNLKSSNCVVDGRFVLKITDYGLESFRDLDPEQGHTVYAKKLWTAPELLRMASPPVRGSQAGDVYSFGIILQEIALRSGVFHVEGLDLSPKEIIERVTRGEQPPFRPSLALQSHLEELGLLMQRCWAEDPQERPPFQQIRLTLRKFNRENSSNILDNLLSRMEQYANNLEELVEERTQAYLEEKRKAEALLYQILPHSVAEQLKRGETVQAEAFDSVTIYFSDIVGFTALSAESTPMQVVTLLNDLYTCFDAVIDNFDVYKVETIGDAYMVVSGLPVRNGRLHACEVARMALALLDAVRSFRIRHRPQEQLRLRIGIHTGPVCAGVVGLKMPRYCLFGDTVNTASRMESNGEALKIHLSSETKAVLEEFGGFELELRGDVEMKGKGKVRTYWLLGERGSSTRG
Kind of series: Competitive binding to GC-A receptor (FIG. 7). As to conditions: glycosylated recombinant human proBNP vs hBNP. From the text:
FIG. 7 is a graph showing competitive binding of glycosylated recombinant human proBNP to GC-A receptor relative to hBNP.

In series [3] the target is T2, NPR-A receptor (Homo sapiens, UniProt P16066).
T2 construct: endogenous in cells; host or cells: human aorta endothelial cells
T2 sequence (P16066 33-1061): T1 sequence (P16066 33-1061)
Nature of the series: NPR-A activation in human aorta endothelial cells (FIG. 8). The class given is cell-based. The source says:
The graph provides a direct activity comparison of hBNP relative to proBNP.
With respect to proBNP and BNP, total “Natriuretic Activity” in a blood sample is defined by the cumulative activity of proBNP and hBNP. When measuring against this receptor however it should be appreciated that the activity of other relevant natriuretic peptides, such as ANP and proANP can and should also be taken into consideration.

Series [4] has as its target T1, GC-A receptor. Nature of the series: Cyclic GMP release from cells expressing the human GC-A receptor. The class given is cell-based. Particulars: vs hBNP. The procedure:
Pursuant to the present invention, the effects of hBNP, unglycosylated proBNP, and O-link glycosylated proBNP on cyclic GMP release from cells expressing the human GC-A receptor were determined.

The nature of series [5]: Pharmacokinetics after i.v. bolus in cynomolgus monkeys (FIGS. 9, 10). The class given is in vivo, cynomolgus monkey. As to conditions: for circulating (plasma) half-life compared to hBNP: i.v., male Cyno monkeys. From the text:
Six adult male cynomolgus monkeys (5-6 kg) from the same colony were randomly selected for this study. In the morning of the experiment day, each monkey was quickly anesthetized by inhalation of 5% isoflurance/95% oxygen. Once the animal was unconscious, the isoflurance was reduced to 1.5% and a sterile catheter was inserted into the urinary bladder. Another catheter was connected to a cephalic vein in the right or left arm of the monkey for compound delivery. The anesthesia was discontinued. The conscious monkey was seated in a restraining chair and allowed to stabilize for 1 hour. The conscious monkey received two bolus doses (1 nmol/kg and 3 nmol/kg) of each human BNP analog in 1 ml of saline via cephalic vein injection followed by a flush with 3 ml of saline. One hour of washing-out period was required between the two administrations. Two ml of blood were drawn into a EDTA tube containing 150 kallikrein-inactivating units aprotonin via a cephalic vein in the another arm of the monkey at the following 8 time points: baseline (within 2 min prior to dosing), 2, 5, 10, 15, 30, 60 and 120 min. The collected samples were kept on ice prior to centrifugation at 4° C. The plasma from each time point was aliquoted to 4 Eppendorff tubes with approximately […]. For urine collection, the bladder was emptied and flushed with 5 ml of sterile water. The urine was collected to a 15 ml regular polypropylene tube in every 20 min at the following time points: −60, −40, −20, 0, 20, 40, 60, 80, 100 and 120 min. Weighing of tube was required before and after collection. The urine sample from each time point was aliquoted to 4 Eppendorf tubes with […]. All plasma and urine samples were kept at −80° C. and delivered on dry ice. Material supply: […] of hBNP were required for 8 cynos with the body weight of 6 kg at the doses of 1 nmol/kg and 3 nmol/kg, respectively. The material for each dose was weighed to a 15 ml sterile tube and dissolved in 8 ml of sterile saline prior to injection. Approximately 1 ml of the material at each dose was injected to each animal. The injection volume (ml) of the material to each animal was equal to animal body weight (kg) divided by six.

Series [6] relates to cGMP. Nature of the series: cGMP levels in plasma and urine after i.v. bolus in cynomolgus monkeys. The class given is in vivo, cynomolgus monkey. From the text:
Six adult male cynomolgus monkeys (5-6 kg) from the same colony were randomly selected for this study. In the morning of the experiment day, each monkey was quickly anesthetized by inhalation of 5% isoflurance/95% oxygen. Once the animal was unconscious, the isoflurance was reduced to 1.5% and a sterile catheter was inserted into the urinary bladder. Another catheter was connected to a cephalic vein in the right or left arm of the monkey for compound delivery. The anesthesia was discontinued. The conscious monkey was seated in a restraining chair and allowed to stabilize for 1 hour. The conscious monkey received two bolus doses (1 nmol/kg and 3 nmol/kg) of each human BNP analog in 1 ml of saline via cephalic vein injection followed by a flush with 3 ml of saline. One hour of washing-out period was required between the two administrations. Two ml of blood were drawn into a EDTA tube containing 150 kallikrein-inactivating units aprotonin via a cephalic vein in the another arm of the monkey at the following 8 time points: baseline (within 2 min prior to dosing), 2, 5, 10, 15, 30, 60 and 120 min. The collected samples were kept on ice prior to centrifugation at 4° C. The plasma from each time point was aliquoted to 4 Eppendorff tubes with approximately […]. For urine collection, the bladder was emptied and flushed with 5 ml of sterile water. […]

“Also recorded” adds a separate entry of the source.

The values that follow come from patent US20080312152A1, “Glycosylated Probnp” (priority 2005, published 2008).

Turning to `CC[C@H](C)[C@@H]1NC(=O)[C@H](CCCNC(=N)N)NC(=O)[C@H](CC(=O)O)NC(=O)[C@H](CCSC)NC(=O)[C@H](CCCCN)NC(=O)[C@H](CCCNC(=N)N)NC(=O)CNC(=O)[C@H](Cc2ccccc2)NC(=O)[C@@H](NC(=O)CNC(=O)[C@H](CO)NC(=O)CNC(=O)[C@H](CCC(N)=O)NC(=O)[C@@H](NC(=O)[C@H](CCSC)NC(=O)[C@H](CCCCN)NC(=O)[C@@H]2CCCN2C(=O)[C@@H](N)CO)C(C)C)CSSC[C@@H](C(=O)N[C@@H](CCCCN)C(=O)N[C@H](C(=O)N[C@@H](CC(C)C)C(=O)N[C@@H](CCCN=C(N)N)C(=O)N[C@@H](CCCN=C(N)N)C(=O)N[C@@H](Cc2cnc[nH]2)C(=O)O)C(C)C)NC(=O)CNC(=O)[C@H](CC(C)C)NC(=O)CNC(=O)[C@H](CO)NC(=O)[C@H](CO)NC(=O)[C@H](CO)NC(=O)[C@H](CO)NC1=O` [hBNP], the half-life result in series [1] is on record as “approximately 20 minutes”.

As for “proBNP: 108 amino acid human BNP precursor protein, O-link glycosylated, recombinantly expressed in CHO cells”, the “competitive binding to GC-A receptor relative to hBNP” value in series [2] is given as “less active”. For the same compound, in series [3], the “activity against the NPR-A receptor” value is listed as “exhibit activity” and the “potency on NPR-A activation compared to hBNP” value was “lower activity than hBNP; also recorded: reduced potency”. Besides, in series [4], the “inducing cellular cyclic GMP release (receptor activation)” value is on record as “equivalent to hBNP” and the “potency in cyclic GMP release assay” value is on record as “less potent than hBNP”. The “PK profile compared to BNP” value in series [5] (conscious restrained cynomolgus monkeys, i.v. bolus) is recorded as “extended PK profile”. For the same compound, in series [5] (cynomolgus monkeys), the “metabolism in the blood” value was “not metabolized in the blood”. Besides, in series [5], the “circulating (plasma) half-life compared to hBNP” value was “longer plasma half-life; also recorded: substantial increase in circulating half-life”. For the same compound, the “circulating (plasma) half-life compared to hBNP” value in series [5] (listed as glycosylated proBNP) is recorded as “greater than that of hBNP”. For the same compound, the “effects on cGMP levels in plasma compared to BNP” value in series [6] (plasma) is listed as “reduced effects”. Further, in series [6] (urine), the “effects on cGMP levels in urine compared to BNP” value is on record as “reduced effects”.
